The text below walks through data of patent US20230265175A1.

The target in this test is PD17(p)PS413 (24AWF). The test can be described thus: peptide-coated ELISA (plate coated with 1 µg/ml peptide 24AWF, anti-human IgG-HRP, ABTS, OD405). In general terms: In an ELISA, binding on a coated surface is turned into a signal by an enzyme label.

B1: V5-AFM-hIgG4-S228P (antibody, V domains shown)
VH: EVQLVESGGGLVQPGGSLRLSCAASGFTFSSFALNWVRQAPGKGLEWVGHIRSKTNNYVTFYAASVKGRFTVSRDDSQNTAYLQMNSLKTEDTATYYCVRRGPRDSWFGYWGQGTLVTVSS
VL: DIVMTQSPLSLPVTLGEPASISCRSSQKIVHRNANTYLEWYLQKPGQSPQLLIYTVSNRFSGVPDRFSGSGSGTDFTLKISRVEAEDLGVYYCFQGSYLPLTFGGGTKVEIKR
For B1, the half-maximal effective concentration (EC50 (read off the curve)) stood at 0.04 µg/mL.

The term EC50 (read off the curve) denotes the concentration needed to bring the measured effect to its halfway point.
